Key:
[1] = biological target: the molecule itself; assay: crystal structure
[2] = biological target: T1, apo-FabA (E. coli fatty acid 3-hydroxyacyl-ACP dehydratase, unlabeled, not crosslinked) (E. coli, UniProt P0A6Q3 2-172); assay: NMR titration
T1 sequence: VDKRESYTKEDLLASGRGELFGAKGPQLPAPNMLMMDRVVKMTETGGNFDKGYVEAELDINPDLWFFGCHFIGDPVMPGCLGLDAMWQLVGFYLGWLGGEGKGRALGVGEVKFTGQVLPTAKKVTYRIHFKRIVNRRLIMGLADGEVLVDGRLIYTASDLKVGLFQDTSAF

B1: FabA (E. coli fatty acid 3-hydroxyacyl-ACP dehydratase) as in the crosslinked AcpP=FabA complex (enzyme)
chain: T1 sequence
modifications: H70 covalently connected through probe 1 to S36 of AcpP
stoichiometry N [1]: 2

B2: holo-AcpP (E. coli acyl carrier protein with 4'-phosphopantetheine) (natural protein)
chain: STIEERVKKIIGEQLGVKQEEVTNNASFVEDLGADSLDTVELVMALEEEFDTEIPDEEAEKITTVQAAIDYINGHQA
modifications: 4'-phosphopantetheine (PPant) on S36
binding result [2]: binds

B3: octanoyl-AcpP (E. coli acyl carrier protein with octanoyl-4'-phosphopantetheine) (natural protein)
chain: B2 chain
modifications: octanoyl chain on the PPant arm attached to S36
binding result [2]: binds
